Holding throughout (assay): split reporter
The target in assay [1] is SmBiT-CHIP.
Assay [2] addresses SmBiT-CHIP K30A.
Assay [3] has as its target SmBiT-CHIP. This is another data set of the same source.
Assay [4] concerns the target SmBiT-CHIP-FLAG.

Where two headings read alike, the source gives them in different places.

Chain of SmBiT-CHIP (Q9UNE7 whole entry): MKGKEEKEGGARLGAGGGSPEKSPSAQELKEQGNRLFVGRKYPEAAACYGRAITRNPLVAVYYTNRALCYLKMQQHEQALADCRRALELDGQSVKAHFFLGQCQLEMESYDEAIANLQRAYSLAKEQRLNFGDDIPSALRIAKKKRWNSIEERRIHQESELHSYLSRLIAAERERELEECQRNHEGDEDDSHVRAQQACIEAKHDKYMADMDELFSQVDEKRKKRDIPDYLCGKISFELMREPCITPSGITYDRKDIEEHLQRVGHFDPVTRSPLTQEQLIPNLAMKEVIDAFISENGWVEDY
Chain of SmBiT-CHIP-FLAG (Q9UNE7 whole entry): as above

B1: LgBiT-IEEVD (peptide)
chain: GGSGIEEVD
B1: the fold increase in luminescence over the negative control was 160 to 180 fold in assay [1], 97 fold in assay [2] and 180 fold in assay [3].

B2: LgBiT-LWWPD (peptide)
chain: GGSGLWWPD
Turning to B2, in assay [3], the fold increase in luminescence over the negative control worked out at 300 fold.

B3: myc-LgBiT-IEEVD (peptide)
chain: GGSGIEEVD
Take B3: the luminescence with dox in assay [4] worked out at 47300 RLU.

Source of the values: paper PMC8054679.
